This note sets out measurements from paper PMC6222646, “HIV-1 Integrase-Targeted Short Peptides Derived from a Viral Protein R Sequence”.

Data set [1] has as its target Vpr-derived peptide 1a, Vpr(69-75) (HIV-1, UniProt Q73369). Nature of the data set: fluorescence anisotropy; 7.5 mM MgCl2; peptide up to 37 µM, no IN; IN-activity buffer: 50 mM MOPS pH 7.2, 7.5 mM MgCl2, 14 mM 2-mercaptoethanol; 10 nM DNA, +/- 400 nM IN; 5 min room temperature preincubation, anisotropy read every 30 s for 30 min. The note with it: label: AlexaFluor 488 at 5' end of 21T; blunt. A general note: In fluorescence polarisation assays a small probe gives low polarisation when free and higher when bound to something large.

The target in the next data set is HIV-1 integrase (IN) (HIV-1 (strain ), UniProt P12497 1148-1435). The data set can be described thus: fluorescence anisotropy; IN-activity buffer: 50 mM MOPS pH 7.2, 7.5 mM MgCl2, 14 mM 2-mercaptoethanol; 10 nM DNA, +/- 400 nM IN; 5 min room temperature preincubation, anisotropy read every 30 s for 30 min. The note with it: protein: recombinant; tags: His6 or FLAG constructs described; chain copies: 4; label: AlexaFluor 488 at 5' end of 21T; blunt.

Vpr-derived peptide 1a, Vpr(69-75), sequence (Q73369 whole entry, looked up): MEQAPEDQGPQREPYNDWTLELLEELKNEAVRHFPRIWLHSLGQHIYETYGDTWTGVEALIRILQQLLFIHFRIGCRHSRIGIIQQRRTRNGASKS

B1: 21T/21B duplex (HIV-1 viral DNA end substrate) (dsDNA)
DNA 1: GTGTGGAAAATCTCTAGCAGT
DNA 2: ACTGCTAGAGATTTTCCACAC
As to B1, the figures for the binding result (in data set [1]; in the data set with HIV-1 integrase (IN)) were “no binding” and “binds”, respectively.
